One experiment deals with T1, recombinant PACE4 (Homo sapiens, UniProt P29122).
T1 construct: made in house; host or cells: S2 cells
T1 sequence (P29122 150-969): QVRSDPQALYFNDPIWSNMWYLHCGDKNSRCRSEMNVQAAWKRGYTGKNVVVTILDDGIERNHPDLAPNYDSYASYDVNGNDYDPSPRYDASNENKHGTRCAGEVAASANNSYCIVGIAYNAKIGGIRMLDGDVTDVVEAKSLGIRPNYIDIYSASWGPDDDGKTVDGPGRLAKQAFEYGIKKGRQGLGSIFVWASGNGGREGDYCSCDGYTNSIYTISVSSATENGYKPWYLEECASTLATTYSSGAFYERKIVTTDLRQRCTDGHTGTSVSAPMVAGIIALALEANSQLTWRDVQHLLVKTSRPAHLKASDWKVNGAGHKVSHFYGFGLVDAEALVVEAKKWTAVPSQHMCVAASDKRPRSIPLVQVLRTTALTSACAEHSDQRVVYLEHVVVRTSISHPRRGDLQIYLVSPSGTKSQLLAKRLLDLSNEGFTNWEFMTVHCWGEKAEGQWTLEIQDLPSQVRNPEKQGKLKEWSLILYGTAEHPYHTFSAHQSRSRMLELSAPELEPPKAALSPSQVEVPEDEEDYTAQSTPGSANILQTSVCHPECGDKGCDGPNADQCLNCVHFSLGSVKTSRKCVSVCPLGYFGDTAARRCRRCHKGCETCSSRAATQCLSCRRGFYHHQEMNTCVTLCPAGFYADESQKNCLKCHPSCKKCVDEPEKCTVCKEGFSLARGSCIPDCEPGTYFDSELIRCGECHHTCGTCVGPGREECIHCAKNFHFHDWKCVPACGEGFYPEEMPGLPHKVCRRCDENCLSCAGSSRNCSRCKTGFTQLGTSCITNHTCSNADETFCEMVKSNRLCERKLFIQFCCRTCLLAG
Briefly: GDF-15 spanning peptide cleavage monitored by HPLC. Format: biochemical. Particulars: 37° C., 1 h, pH 7.5. The source says: (§1) GDF-15 is known to supports both the proliferation and clonogenic potential of LNCaP cells, which is also in line with the observed phenotypes for both PACE4 knockdown and overexpressing cells. This protein is synthetized as a 35 kDa proprotein which requires a PC-based cleavage at the […]^196↓, site to generate a ˜17 kDa C-terminal mature form that associates as a disulfide-linked dimer further secreted in the medium. GDF-15 is only detected in LNCaP cells whereas DU145 express very low levels in both medium and cell lysates (FIGS. 10C and D). […]
(§2) GDF-15 peptide (40 μg) was incubated at 37° C. with recombinant PACE4 or soluble furin (16U) in 100 mM Hepes buffer containing 1 mM CaCl2, 1 mM 3-mercaptoethanol, and 1.8 mg/mL BSA, pH 7.5 (total sample volume: 300 μl) over a period of 1 h. […] After incubation, the reactions were immediately analyzed by the analytical HPLC (Agilent Technologies, 1100 series with a diode array detector and a fraction collector; injection volume: 95 μl, gradient: 2 to 25% […] in 50 min; [A]0.1% aq TFA and [B] acetonitrile+0.1% aq TFA; column: an Agilent Eclipse XDB C18 column (5 μm, 4.6×250 mm). The collected fractions were analysed by SELDI-TOF mass spectrometer (Bio-Rad Laboratories) to identify the cleavage product.

Another experiment deals with T2, soluble furin (Homo sapiens, UniProt P09958).
T2 construct: recombinant PACE4 or soluble furin (16U); made in house; host or cells: S2 cells (said of recombinant PCs in general)
T2 sequence (P09958 108-715 limits assumed): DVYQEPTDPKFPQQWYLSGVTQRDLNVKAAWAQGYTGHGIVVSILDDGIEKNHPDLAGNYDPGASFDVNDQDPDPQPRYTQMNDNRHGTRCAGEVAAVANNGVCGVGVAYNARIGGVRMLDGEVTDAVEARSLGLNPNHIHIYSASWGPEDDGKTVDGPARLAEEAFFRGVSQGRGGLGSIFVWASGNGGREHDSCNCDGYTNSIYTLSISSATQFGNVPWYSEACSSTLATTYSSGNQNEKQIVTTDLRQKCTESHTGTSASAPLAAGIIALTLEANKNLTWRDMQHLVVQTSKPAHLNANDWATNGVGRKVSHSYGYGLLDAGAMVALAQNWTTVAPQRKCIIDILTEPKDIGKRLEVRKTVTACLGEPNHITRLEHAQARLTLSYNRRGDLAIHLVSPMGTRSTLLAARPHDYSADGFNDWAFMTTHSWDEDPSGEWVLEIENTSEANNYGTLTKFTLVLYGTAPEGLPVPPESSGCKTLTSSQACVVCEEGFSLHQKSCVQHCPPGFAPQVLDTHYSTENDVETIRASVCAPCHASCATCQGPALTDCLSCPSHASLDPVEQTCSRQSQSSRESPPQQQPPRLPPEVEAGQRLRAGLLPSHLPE
Nature of the experiment: GDF-15 spanning peptide cleavage monitored by HPLC. Format: biochemical. As to conditions: 37° C., 1 h, pH 7.5.
Excerpt: as §1, §2

Take “QAARGRRRARARNG (Ac-QAARGRRRARARNG-NH2) [synthetic N-acetylated peptide spanning the GDF-15 cleavage site]”: the “cleavage of peptide at the QAARGRRRAR site” value with recombinant PACE4 and with soluble furin was “cleaved by both PCs” throughout.

These data come from US20190316211A1, “ONCOGENIC ALTERNATIVE SPLICING SWITCH OF PACE4 IN CANCER” (SOCIETE DE COMMERCIALISATION DES PRODUITS DE LA RECHERCHE …, priority 2016, published 2019).
